Source: the DeepSol protein solubility set

Assay: soluble on expression in E. coli; label from the status in PepcDB or PDB records

Sequence | soluble on expression in E. coli
MAHHHHHHMTAHHALLLGSLVDDVDLSVRRGAQADTLTVDGAADRLLSAIASYTKSAAATDVDVEDNGEAAQETAALSLMAHMQRLSLLCNAARTPETSCTSAGEDNIHKCVDDWAKWLLGLESKPIVLASKVALCLPPLQACWRGGSALDGAGSAHIDRIEEAIGSFFAHAARRCVTEWTTHGAPLRTLLPPLALLTTYARFRWAWSRFTELRHVGGGEHLGEAEGGIAVVGSSDTVQRQENRDIDFLGIAGEVESCHAAKLTREVLLHSLKTIDWRVGSAVPAVKEVAPLFWCVFLRCRSYALHSCSQCRSSSSDFFAHEASARLVAQVLRCTVDGVRLCIERQAADMHVARARQLCTCDIPCLVLLTRLWFSWIALATDAAAVLLPRLERSLRQLVSSVVKLRGGAETKPPPSSVAAALAENSAEASWTEQETLFVEVAWKVAPLSMSEIASATAAVPWTSEFVRASEVQAVLEKRTLVAPVP | not soluble
MGSDKIHHHHHHARTILREELAQNSINKYSVKQYCQASGVGRASFYSTYNGMPDLFCNTLQFEIRKHFQNYSDCNSRKLVYALLKEIGDHRIYYTNIYRLTNKNTSKIHICHQINHAFFTEMQKHLQNSNCSNKQIQSMTNIIFSRVVSWVAHNCKEKVLDVYVDLEYVLPSN | not soluble
MGSSHHHHHHSSGLVPRGSHMTDKLTSLRQYTTVVADTGDIAAMKLYQPQDATTNPSLILNAAQIPEYRKLIDDAVAWAKQQSNDRAQQIVDATDKLAVNIGLEILKLVPGRISTEVDARLSYDTEASIAKAKRLIKLYNDAGISNDRILIKLASTWQGIRAAEQLEKEGINCNLTLLFSFAQARACAEAGVFLISPYVGEILDWYKANTDKKEYAPAEDPGVVSVSEIYQYYKEHGYETVVMGASFRNIGEILELAGCDRLTIAPTLLKELAESEGAIERKLSYTGEVKARPARITESEFLWQHNQDPMAVDKLAEGIRKFAIDQEKLEKMIGDLL | soluble
MGSDKIHHHHHHANNFGITYSLPKTSLVVDAEVTKVTCKAGPYYQYAEKYLGVKDAVTEDKIYFDLGKISLINRGLPDADNTYIVEFKQGTVAPYAYLTEDGLLCSINAEYTPVESELDAAKKNKGSQQKVTDTSVFSEELLMAGSTAKQAEVAAKQIYRIRESRLNILTGEADNLPPDGEAMKLVIQQLEEQEKALTNLFTGILTKETEHYEVSIIPHDNLDKEVLFRFSKQLGIVDADDLGGTPVYMNLKATERAPILDAKEAEKKDKSLKGIVYNVPGKASIEILMNKKTLYKGEAQITQFGTREGLAPVMFEDKKAPVKVLFYPETGAIKQIIQ | not soluble
GPGSMASQPGDALGKIEYWVQYIDCALKHPRPLPAGKHAHRQSLETIPEVAELYHCIYKLYNEEESSVWFREPVNALAQEIFTYYDVVKSPMSLRHILDNIVKGDTYSTALQVMEDVELIWKNCITFNGANSLLATEAGKCRSALDRIRRAYQDDQRITVEEAERLFRVISSMQEQQLIDNIAEYLRRDDPTSIDETGAVNFDMLKRKHFRNLERIVDNYSKSRTRS | soluble
GMVSRSPFESFQWKSDIFNCESTDIDNFYLLLEQEMTRLGMVEKNLGEVGKYKVSLYQSPAAKSGLPSLLISAGFHGEESAGPWGLLHFLSEASADLFERVNLSLLPLVNPTGFSRGHRFNKYGENPNRGFVFENGKPKANEHTSVEGKLLLDHAQLLIAACRDGILTCHEDVLSREAYVYSFEPSQVPGRFSLDLRDTLGGYFPIAVDGEIDACPVKDGLIFNHFDTSFEACLVRSGARVGACTETPALQNFDQRVLANSAAMTHFLALCAPLCD | soluble
MKKVLLIVISILFGSVLVGCQMNESNKTQDKIQSITGSVAYRERIALPDNAVVTVYLQDVSLADAPATVIAKQNFITNGMQVPLEFNLAYDSRKIKASHRYSVSARIEVDGKLRFITDTHYGVITDPEATKHVPMMLIGVHGE | not soluble
MVEKPVVIKFGGTSVRYAFEEALELVAKLHENMKIIVVVSALAGVTDCLLRLAKGDKSALLEIDEIHEELSQELNVQLEHLIHQLKKTINSKSSFPSEKAFIDEIASFGERFSAKLFSEGLKILGITARPVDSKDVLFVKGEFGNAEVEFKKSAQGVDVLYRMLRRGIVPVVTGYYGNLNGFRATFGRGGSDYSATSIASLVNAKAVLIMSDVEGIYTADPKLVPPARLIHYISYKEAKTAAKLGMKVLHPRAIDPVEGKIPVILGKTRDLKFGTLISHESQGIPIVTHKLLENHAEISVVSVKTNIPLPYEVYEEGDLYFKIKTSKDQFLEVLRDVHRRVVENENLHSSHDGELWTWVLEHHHHHH | not soluble
MEIFEKIRSLRKNHNLSQEEIADKINLSVSGYRKIENGKSRINHKRLEQIAEALEVSPLDLIPNSWRHGSSVYQVGKNGFYGDSSRAIEIELLKQQIKQEQLIKAKDETIEDKNRLISRLEEMLKILNT | not soluble
MDSADPQLNRFLQQLQAETQRQKFTEQVHTLTGRCWDVCFADYRPPSKMDGKTQTCIQNCVNRMIDASNFMVEHLSKMNGGHV | not soluble
MDHHHHHHHHMPRTTGMNVAVVGGGISGLAVAHHLRSRGTDAVLLESSARLGGAVGTHALAGYLVEQGPNSFLDREPATRALAAALNLEGRIRAADPAAKRRYVYTRGRLRSVPASPPAFLASDILPLGARLRVAGELFSRRAPEGVDESLAAFGRRHLGHRATQVLLDAVQTGIYAGDVEQLSVAATFPMLVKMEREHRSLILGAIRAQKAQRQAALPAGTAPKLSGALSTFDGGLQVLIDALAASLGDAAHVGARVEGLAREDGGWRLIIEEHGRRAELSVAQVVLAAPAHATAKLLRPLDDALAALVAGIAYAPIAVVHLGFDAGTLPAPDGFGFLVPAEEQRRMLGAIHASTTFPFRAEGGRVLYSCMVGGARQPGLVEQDEDALAALAREELKALAGVTARPSFTRVFRWPLGIPQYNLGHLERVAAIDAALQRLPGLHLIGNAYKGVGLNDCIRNAAQLADALVAGNTSHAP | soluble
MNEMTLLYSPSCWVPGKNRDEVMNDFFAGIKNAFEALKNDEKIPRKENVAYGMEENQKVDIWGDASDKLLIFIHGGYWAAGTRKDCLTPARCALNNEYAFASVGYGLSTEGRTLTETVEDVVNGVDFILKLYPNVSNVLVGGHSAGAHLAMNAVARLRNPRIRGLLLFSGCYFLEELIGTEIGTDINLTTDQAKLNSCDLSKLDGLKLDSLVILGLQEAPKLIEQNRDFVAQQGQSRIEEFPNSGHYTIMTNLLNHTSGEYLAMEKFLKNF | not soluble
MNGIFIEDKRLGIRLPHLDKPWEDYSPNEQEAILLEWETIRGLIPDRIAELEREINKKQDELGQEADFARSCQLNADIAELASIVNDLWIWYRIVPSVSSRHGKKRVEKP | not soluble
GPGSMRFRRVLAPLAASPHRWKTQRSPRGEETMGEGGAIEPDTSEAWVRNYVARAVREGRQTKESAEYFESIMNDQVEFRQYIQEARRLLNNQDPRTLTKYQRGHFAERLSRQMSGVAAERLMRAHAEESNARRHTQDGTPTGENYWFEAGNTLASPSVPGFVKDEVMREMREDRKKTSAAFEESEELQAMADKDEAFAEHLRRQRQHLFRSNDDVN | not soluble
MQPLPDPKPNTQKEHHPVDRNFIAMIDDLKTTQIPWQKPGHIMTEDEQKMWNATRMREYRRKSNETLEKSKSMLDGLKSQCTVNTVVLKNMLITKSVEDSVKLNAARFLGKSEKELMDIPEIKQMFQQYWNCRKTASNSHYEQRSLIYLDRVVSLQTEYLNYKANRNDSRSPSQLVKKIKDATMKAEAYEFFMDDKRVRKVIGELNEIDSKFKENIGAWLLQQLKIDSSLSHLLST | not soluble
MEVRFTRGKSAILERSLTRPKTEVSVSAFALLFSEMVQYCQSRVYSVSELQARLADMGQGVGASLLDVLVMREKNGKRETKVLNILLFIKVNVWKALFGKEADKLEQANDDDKTYYIIEKEPLINAYISVPKENSTLNCAAFTGGIVEAILTHSGFPAKVTVHWHKGTTLMIKFDESVIARDKALDGR | soluble
MRFQYQALLNEHQSQLDRFSSHIVATLDKYAHIPHLISKDKELVDALLSAQNSAQIDITNRYLEQVNEVIQAADTYLIDRFGNTIASSNWNLDRSFIGRNFAWRPYFYLSIAGQKSQYFALGSTSGQRGYYYAYPVIYAAEILGVIVVKMDLSAIEQGWQNKSSYFVATDDHQVVFMSSQPAWLFHSVADLSPAQLNDIRQSQQYLDSPIPSLGWQGDLQAEQSEWRKPEKHWLQDDYIVSSRPLPELALTIRVLSPKIE | soluble
MMLPKEIMMPNDNPYALHRVKVLKVYSLTETEKLFLFRFEDPELAEKWTFKPGQFVQLTIPGVGEVPISICSSPMRKGFFELCIRKAGRVTTVVHRLKPGDTVLVRGPYGNGFPVDEWEGMDLLLIAAGLGTAPLRSVFLYAMDNRWKYGNITFINTARYGKDLLFYKELEAMKDLAEAENVKIIQSVTRDPNWPGLKGRPQQFIVEANTNPKNTAVAICGPPRMYKSVFEALINYGYRPENIFVTLERRMKCGIGKCGHCNVGTSTSWKYICKDGPVFTYFDIVSTPGLLD | not soluble
MGHHHHHHENLYFQSHLYFQSHMYHDRRRTGFRQYETYMKQKQSADWQLDELLEELEALETQLNSSNGGDQLLLGVSGIPASSSRENVKSISTLPPPPPALSYHQTPQQPQLLHHHNNHLGYQNGIHQITSINSAASSCSSPDGDSAFGDSSSTESSNNRCRNSAFSSNDSCRDSLNTPSPTQVSPRNGELNAEEAKAQKIRQALEKMKEAKVTKIFVKFFVEDGEALQLLIDERWTVADTLKQLAEKNHIALMEDHCIVEEYPELYIKRVYEDHEKVVENIQMWVQDSPNKLYFMRRPDKYAFISRPELYLLTPKTSDHMEIPSGDQWTIDVKQKFVSEYFHREPVVPPEMEGFLYLKSDGRKSWKKHYFVLRPSGLYYAPKSKKPTTKDLTCLMNLHSNQVYTGIGWEKKYKSPTPWCISIKLTALQMKRSQFIKYICAEDEMTFKKWLVALRIAKNGAELLENYERACQIRRETLGPASSMSAASSSTAISEVPHSLSHHQRTPSVASSIQLSSHMMNNPTHPLSVNVRNQSPASFSVNSCQQSHPSRTSAKLEIQYDEQPTGTIKRAPLDVLRRVSRASTSSPTIPQEESDSDEEFPAPPPVASVMRMPPPVTPPKPCTPLTSKKAPPPPPKRSDTTKLQSASPMAPAKNDLEAALARRREKMATMEC | not soluble
MSLKLIGLLMLSYPLQAAPTDLSRYLETQLKEDAREALNSYLQQQGWSASEVDYQVWLSPAVTHLPPCQQAIRLQAGGQYRQPWGRRPYLAECTEPAWQLRARVEVTLMLPVWVTAQEIQKGQTIRTGDLVEKSLDISRLQRGFVPSSESLVGSKSNRNLRMGQLIGELDLQKAWAIREGEGVLIRAGLDGFSATTRGKALANGAIGDGIKVRNISSGKEIQAWVIEKGEVETRFEGHHHHHH | not soluble
VTSPNSTAPTPSLITAPPPSTTEDLRLALRAATLYYLDGMTQAEVATRLGVSRPTAGRLVARARAQGLVRIEVQAPAHLRDALRSDEERALEEKYGLVEAVVVADSVDAAGAIDDHNSFAGVGRAAASLLVRRIREGDTLGFTWGPETVAVAQGLPSGAATCASVVQLDGSVSAINYQTGTEYVLGRCAEQLQANTVRLPVPLYADASTVVSMRGDSVISKALEAGRTAEMMMFGTGAVSTSTTLFEGSFIDTDMLSVLTGLGAVGEVGGRFYRLDGTEVAGPLDERAMSVPLDDIRACEGSILVTGGVAKHQAALGALHGGLAKMLVCDIECARWLLDQ | not soluble
MGSDKIHHHHHHMDFIEVYPNAIPDELCDRLISTLEQHPGVVDGRTGNGVDIEKKLSRDLTLDSFADLIPLRNELLSHALKGTVEYFDKYSMALMGAVAVKVADNQGQPVTLNPDNYAELGHPRADALVKYLYRSGTINVQKYPKGKGGYPHWHSEQFPQAGHNEALHRVVLYMFYLNDVEEGGETEFFYQGRKLKPQKGTMVIAPAGFTHTHRGNVPVSGDKYIATSWVMFNRAEQLYVVG | not soluble
